System: Bacillus subtilis
Assay: cleaved RNA product abundance (RNA/gDNA barcode ratio) relative to median wild-type variant (ratio to wild type); higher = more accumulation of the downstream cleavage product
Experimental: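 MPRA in B. subtilis. Mutagenized RNase Y cleavage-site regions (9% mutation rate) were inserted into a barcoded reporter mRNA (truncated aprE or tetM). Cells were grown in LB at 37°C to OD600 0.3. The cleaved RNA isoform was gel-purified and its barcodes counted; the RNA:gDNA barcode ratio was normalised to the median wild-type variant, and the median over barcodes is reported per variant. The printed sequence is the variable window only; the reporter flanks are not printed.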

[1] = experiment (reporter, strain, medium): exp 2b: truncated aprE reporter, strain BJT200, cleavage site: cggR-gapA (positions -7 to +36 mutated)
[2] = experiment (reporter, strain, medium): exp 4a: truncated aprE reporter, strain BJT201 with 2% xylose (RNase J1 expressed), cleavage site: cggR-gapA (positions -7 to +36 mutated)
[3] = experiment (reporter, strain, medium): exp 8a: truncated aprE reporter, strain BJT201 with 2% xylose (RNase J1 expressed), cleavage site: glnRA (positions -5 to +31 mutated)
[4] = experiment (reporter, strain, medium): exp 6: tetM reporter, strain 168, cleavage site: cggR-gapA (positions -7 to +36 mutated)

Row | Sequence | cleaved RNA product abundance [2] | cleaved RNA product abundance [3] | other results
1 | ACAGACGAAGGAGCCGCAAAGAAGTTAGTACGGGATGAATAATCCCTCAATATAAATATCTCTCACTTATTTAAA |  |  | cleaved RNA product abundance [1]: 0.269
2 | ACAGACGAAGGAGCCGCAAAGAAGTTATTAAGGGTTGAATAATTCCTCAATATAAATATCTCTCACTTATTTAAA | 0.1 |  | 
3 | ACAGACGAAGGAGCCGCAAGGAAGTTATTAAGTGATGAATAATCCCTCAATATAAATATCTCTCACTTATTTAAA | 0.149 |  | 
4 | ACAGACGAAGGAGCCGCACAGAAGTTATTAAGGGTTGAATAATCCCTCAATATAAATATCTCTCACTTATTTAAA | 0.473 |  | 
5 | CGACATGTCCCGCTTCTTTCATTAAACCCTTAGCAACTGTTTTGCTATATACATTTACCTTTTAAGAGGAGGAAT |  | 0.18 | 
6 | ACAGACGAAGGAGCCGCAAAGAAGTTATTAAGCGATTAATAATCCCTCAATATAAATATCTCTCACTTATTTAAA | 0.0983 |  | cleaved RNA product abundance [1]: 0.0842
7 | ACAGACGAAGGAGCCGCAAAGAAGTCATTAAGGGATGAATAATCCCACAATATAAATATCTCTCACTTATTTAAA | 0.2 |  | cleaved RNA product abundance [1]: 0.142
8 | CGACATGTCCCGCTTCTTTCATTAATCCGTTGGCAATTGTTTTGCTATATACATTTACCTTTTAAGAGGAGGAAT |  | 1.12 | 
9 | ACAGACGAAGGAGCCGCAAAGAAGTTAGAAAGGGATGAATAATCCCTCAATATAAATATCTCTCACTTATTTAAA | 0.426 |  | 
10 | ACAGACGAAGGAGCCGCAAAGTAGTTATTAAGGGATGGATAATCCCTCAATATAAATATCTCTCACTTATTTAAA | 0.537 |  | 
11 | CGACATGTCCCGCTTCTTTCATTAATCCGTTAGCAACTGTTTAGCTATATACATTTACCTTTTAAGAGGAGGAAT |  | 0.537 | 
12 | ACAGACGAAGGAGCCGCAAAGAAGTTTTTAAGGGATTAATAATCCCTCAATATAAATATCTCTCACTTATTTAAA | 0.364 |  | cleaved RNA product abundance [1]: 0.364
13 | ACAGACGAAGGAGCCGCAAAGAAGTTATGAAGGGACGAATAATCCCTCAATATAAATATCTCTCACTTATTTAAA | 0.318 |  | 
14 | ACAGACGAAGGAGCCGCAAAGAAGTTATTAAGAGATGAATATTCCCTCAATATAAATATCTCTCACTTATTTAAA | 0.0954 |  | 
15 | ACAGACGAAGGAGCCGCAAAGATGTTATTAAGGGATTAATAATCCCTCAATATAAATATCTCTCACTTATTTAAA | 0.703 |  | 
16 | CGACATGTCCCGCTTCTTTCATTAATCCGTTAGCAACTATTTTGATATATACATTTACCTTTTAAGAGGAGGAAT |  | 0.503 | 
17 | ACAGACGAAGGAGCCGCAAAGAAATTATTAAGCGATTAATAATCCCTCAATATAAATATCTCTCACTTATTTAAA | 0.0984 |  | 
18 | CGACATGTCCCGCTTCTTTCATTAATCCGTTAGCAACTGTTTTGATATATACACTTACCTTTTAAGAGGAGGAAT |  | 0.313 | 
19 | ACAGACGAAGGAGCCGCAAAGAAGTTATTAAGGGATGAATAATCCCTCAATATAAATATGACTCACTTATTTAAA | 1 |  | 
20 | CGACATGTCCCGCTTCTTTCATTAATCCGTTAGCATCTGTTTTGCTATATACATTTACCTTTTAAGAGGAGGAAT |  | 0.769 | 

Row | Sequence | cleaved RNA product abundance [2] | cleaved RNA product abundance [3] | other results
21 | ACAGACGAAGGAGCCGCAAAGAAGTTATTAAGTGATGAATAATACCTCAATATAAATATCTCTCACTTATTTAAA | 0.0926 |  | cleaved RNA product abundance [1]: 0.109
22 | CGACATGTCCCGCTTCTTTCATTAATCCGTTAGCAACTCTTTTGCTATAAACATTTACCTTTTAAGAGGAGGAAT |  | 1.3 | 
23 | CGACATGTCCCGCTTCTTTCATTACTCCGTTAGTAACTGTTTTGCTATATACATTTACCTTTTAAGAGGAGGAAT |  | 0.482 | 
24 | CGACATGTCCCGCTTCTTTCATTAATCCGTTAACAACTGTTATGCTATATACATTTACCTTTTAAGAGGAGGAAT |  | 0.219 | 
25 | ACAGACGAAGGAGCCGCAAAGAAGTTATTCAGGGATGAACAATCCCTCAATATAAATATCTCTCACTTATTTAAA | 0.603 |  | 
26 | ACAGACGAAGGAGCCGCAAAGAAGTTATTAAGTGATGAATAATCCCTCAATATAAATAACTCTCACTTATTTAAA | 0.119 |  | 
27 | ACAGACGAAGGAGCCGCAAAGAAGTTATTCAAGGATGAATAATCCCTCAATATAAATATCTCTCACTTATTTAAA | 0.242 |  | cleaved RNA product abundance [1]: 0.134
28 | ACAGACGAAGGAGCCGCAAAGAATTGATTAAGGGATGAATAATCCCTCAATATAAATATCTCTCACTTATTTAAA | 0.439 |  | 
29 | CGACATGTCCCGCTTCTTTCATTAATCCGTTAGCAAATGTTTTTCTATATACATTTACCTTTTAAGAGGAGGAAT |  | 0.753 | 
30 | ACAGACGAAGGAGCCGCAAAGAAGTTATTAAGGGACAAATAATCCCTCAATATAAATATCTCTCACTTATTTAAA | 0.84 |  | 
31 | ACAGACGAAGGAGCCGCAAAGAAGTAATTAACGGATGAATAATCCCTGAATATAAATATCTCTCACTTATTTAAA | 0.16 |  | 
32 | ACAGACGAAGGAGCCGCAAAGAAGTTATAAAGGGCTGAATAATCCCTCAATATAAATATCTCTCACTTATTTAAA | 0.286 |  | 
33 | ACAGACGAAGGAGCCGCAAAGAAGTTATTCAGGGATGAATAATCCCTCAATATAAATATCTCTCACTTATTTAAA | 0.882 |  | cleaved RNA product abundance [1]: 0.766; cleaved RNA product abundance [4]: 0.609
34 | ACAGACGAAGGAGCCGCAAATAAGTTATTATGGGATGAATAATCCCTCTATATAAATATCTCTCACTTATTTAAA | 0.483 |  | 
35 | ACAGACGAAGGAGCCGCAAAGAAATTATTAAGGGATGAATAATCCCTCAATATACATATCTCTCACTTATTTAAA | 0.46 |  | 
36 | ACAGACGAAGGAGCCGCAAAGAAGTTAATAAGGGATGAATAATGCCTCAATATAAATATCTCTCACTTATTTAAA | 0.124 |  | cleaved RNA product abundance [1]: 0.121
37 | ACAGACGAAGGAGCCGCAAATAAGTTATTAAGGGATGTATAATCCCTCAATATAAATATCTCTCACTTATTTAAA | 0.901 |  | 
38 | CGACATGTCCCGCTTCTTTCATTAATCCGTTAACAACTGTTTTGCTATATACATTTACTTTTTAAGAGGAGGAAT |  | 0.253 | 
39 | CGACATGTCCCGCTTCTTTCATTAATCTGTTAGCAACTGTTTTGATATATACATTTACCTTTTAAGAGGAGGAAT |  | 0.562 | 
40 | CGACATGTCCCGCTTCTTTCATTAATCCGTTACCAACTGTTTTGCTATATACATTAACCTTTTAAGAGGAGGAAT |  | 0.238 | 

Row | Sequence | cleaved RNA product abundance [2] | cleaved RNA product abundance [3] | other results
41 | CGACATGTCCCGCTTCTTTCATTAATCCGTTAGCAACTGTTTTGTTATATACATTTAGCTTTTAAGAGGAGGAAT |  | 0.257 | 
42 | ACAGACGAAGGAGCCGCAAAGAAGTTATTAAGGGATGAATAATCCCGAAATATAAATATCTCTCACTTATTTAAA | 0.323 |  | 
43 | CGACATGTCCCGCTTCTTTCATTACTCCGTTAGCAACTGTTTTGTTATATACATTTACCTTTTAAGAGGAGGAAT |  | 0.573 | 
44 | ACAGACGAAGGAGCCGCAAAGAACTTATTAAGGGATGAATTATCCCACAATATAAATATCTCTCACTTATTTAAA | 0.17 |  | 
45 | CGACATGTCCCGCTTCTTTCATTATTCTGTTAGCAACTGTTTAGCTATATACATTTACCTTTTAAGAGGAGGAAT |  | 0.759 | 
46 | ACAGACGAAGGAGCCGCAAAGAAGTTATTAAGGGATGAAGAAGCCCTCAATATAAATATCTCTCACTTATTTAAA | 0.549 |  | 
47 | CGACATGTCCCGCTTCTTTCATTAATCCGTTAGCAAATGTTTTGCAATATACATTTACCTTTTAAGAGGAGGAAT |  | 0.304 | 
48 | CGACATGTCCCGCTTCTTTCATTAATCCGTGAGCAACTGTTTTGCTATATATATTTACCTTTTAAGAGGAGGAAT |  | 0.87 | 
49 | CGACATGTCCCGCTTCTTTCATTAATCCGTTAGCAACAGTTTTGCTATATACATATACCTTTTAAGAGGAGGAAT |  | 1.16 | 
50 | ACAGACGAAGGAGCCGCAAAGAAGTGATTAATGGATGAATAATCCCTCAATATAAATATCTCTCACTTATTTAAA | 0.108 |  | cleaved RNA product abundance [1]: 0.0996
51 | ACAGACGAAGGAGCCGCAAAGAAGTGATTAAGGGATGAATAATCCATCAATATAAATATCTCTCACTTATTTAAA | 0.257 |  | cleaved RNA product abundance [1]: 0.27
52 | CGACATGTCCCGCTTCTTTCATTACTCCGTTAGCAACTGTTTTGCTATATCCATTTACCTTTTAAGAGGAGGAAT |  | 0.21 | 
53 | ACAGACGAAGGAGCCGCAAAGAAGTTATTAAGGGATGAATAATCCCTCAATAAAAATATCTCTCACTTATTTAAA | 0.147 |  | cleaved RNA product abundance [1]: 0.172; cleaved RNA product abundance [4]: 0.28
54 | CGACATGTCCCGCTTCTTTCATTATTCCGTTAGCAACTGTTTTGCTATAGACATTTACCTTTTAAGAGGAGGAAT |  | 0.917 | 
55 | ACAGACGAAGGAGCCGCAAAGAAATTTTTAAGGGATGAATAATCCCTCAATATAAATATCTCTCACTTATTTAAA | 0.264 |  | cleaved RNA product abundance [1]: 0.206
56 | CGACATGTCCCGCTTCTTTCATTACTCCGTTAGCAACTGTTTTGCTATATACATTTACGTTTTAAGAGGAGGAAT |  | 0.893 | 
57 | CGACATGTCCCGCTTCTTTCATTAATCCCTTAGCAACTGTTTTGCTATATAGATTTACCTTTTAAGAGGAGGAAT |  | 0.355 | 
58 | CGACATGTCCCGCTTCTTTCATTATTCCGTTAGCGACTGTTTTGCTATATACATTTACCTTTTAAGAGGAGGAAT |  | 0.759 | 
59 | ACAGACGAAGGAGCCGCAAAGAAGTTATTAAGGGATGAATAATACCTCAATATAATTATCTCTCACTTATTTAAA | 0.165 |  | 

— the supplement of paper PMC11780869
